According to article PMC9482650, “Quantitative fragmentomics allow affinity mapping of interactomes” (Nature Communications, 2022):
Each block holds one binder with its values, some of them ahead of it.

Key:
Test in all cases: holdup assay
Design in all cases: key: below the threshold = too weak to quantify, mostly under pKd 3.1 to 4
SNTA1, Q13424 = biological target: T1, SNTA1, Q13424
T1 sequence (Q13424 82-180, limits assumed, looked up): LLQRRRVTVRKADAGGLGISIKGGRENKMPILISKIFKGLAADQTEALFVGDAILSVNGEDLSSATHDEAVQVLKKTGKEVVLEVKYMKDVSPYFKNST

DLG4_3, P78352 = biological target: DLG4_3, P78352
Sequence of DLG4_3, P78352 (P78352 306-403): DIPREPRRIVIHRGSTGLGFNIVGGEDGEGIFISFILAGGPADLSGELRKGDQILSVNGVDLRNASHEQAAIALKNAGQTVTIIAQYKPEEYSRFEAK

LDB3, O75112 = biological target: LDB3, O75112
Sequence of LDB3, O75112 (O75112 1-94): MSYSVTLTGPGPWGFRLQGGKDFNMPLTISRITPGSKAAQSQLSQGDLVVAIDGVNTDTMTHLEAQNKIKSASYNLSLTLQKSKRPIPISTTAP

MAST2, Q6P0Q8 = biological target: MAST2, Q6P0Q8
Sequence of MAST2, Q6P0Q8 (Q6P0Q8 1099-1202): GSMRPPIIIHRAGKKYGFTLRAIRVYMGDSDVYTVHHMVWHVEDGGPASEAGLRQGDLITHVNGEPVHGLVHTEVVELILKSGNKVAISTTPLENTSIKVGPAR

ARHGEF12, Q9NZN5-2 = biological target: ARHGEF12, Q9NZN5-2
Sequence of ARHGEF12, Q9NZN5-2 (Q9NZN5 other isoform, or with tags, fused parts or gaps): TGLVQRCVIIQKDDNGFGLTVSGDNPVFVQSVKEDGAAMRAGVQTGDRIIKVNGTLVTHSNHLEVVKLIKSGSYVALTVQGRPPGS

GRIP1_7, Q9Y3R0 = biological target: T2, GRIP1_7, Q9Y3R0
T2 sequence (Q9Y3R0 999-1096, limits assumed, looked up): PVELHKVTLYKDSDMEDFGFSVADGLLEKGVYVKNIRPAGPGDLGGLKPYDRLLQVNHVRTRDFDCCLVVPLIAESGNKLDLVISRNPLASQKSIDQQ

GIPC2, Q8TF65 = biological target: GIPC2, Q8TF65
Sequence of GIPC2, Q8TF65 (Q8TF65 112-203): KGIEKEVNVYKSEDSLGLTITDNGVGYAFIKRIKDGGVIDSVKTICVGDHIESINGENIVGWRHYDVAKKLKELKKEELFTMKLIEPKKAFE

TJP3_3, O95049 = biological target: T3, TJP3_3, O95049
T3 sequence (O95049 375-456, limits assumed, looked up): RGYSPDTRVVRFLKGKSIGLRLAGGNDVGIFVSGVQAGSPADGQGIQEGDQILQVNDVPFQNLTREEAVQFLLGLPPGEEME

SCRIB_1, Q14160 = biological target: SCRIB_1, Q14160
Sequence of SCRIB_1, Q14160 (Q14160 718-814): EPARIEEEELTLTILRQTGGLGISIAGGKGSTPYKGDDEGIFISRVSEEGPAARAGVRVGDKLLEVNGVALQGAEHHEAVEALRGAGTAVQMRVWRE

GRID2IP_1, A4D2P6 = biological target: GRID2IP_1, A4D2P6
Sequence of GRID2IP_1, A4D2P6 (A4D2P6 1-87): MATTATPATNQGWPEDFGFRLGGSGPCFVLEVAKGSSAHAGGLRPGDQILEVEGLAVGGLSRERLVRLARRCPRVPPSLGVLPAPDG

PDZRN3_1, Q9UPQ7 = biological target: T4, PDZRN3_1, Q9UPQ7
T4 sequence (Q9UPQ7 244-349, limits assumed, looked up): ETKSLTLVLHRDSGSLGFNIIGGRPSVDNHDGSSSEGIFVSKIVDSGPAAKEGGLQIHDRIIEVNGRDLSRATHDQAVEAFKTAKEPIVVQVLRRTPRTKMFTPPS

MAGI2_2, Q86UL8 = biological target: MAGI2_2, Q86UL8
Sequence of MAGI2_2, Q86UL8 (Q86UL8 410-522): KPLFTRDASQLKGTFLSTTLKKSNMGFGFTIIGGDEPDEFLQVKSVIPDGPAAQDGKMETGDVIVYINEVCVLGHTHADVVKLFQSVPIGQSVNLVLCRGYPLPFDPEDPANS

MPP2, Q14168 = biological target: T5, MPP2, Q14168
T5 sequence (Q14168 180-250, limits assumed, looked up): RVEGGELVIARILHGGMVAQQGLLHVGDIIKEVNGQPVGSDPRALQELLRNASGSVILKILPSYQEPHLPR

GRIP2_7, Q9C0E4 = biological target: GRIP2_7, Q9C0E4
Sequence of GRIP2_7, Q9C0E4 (Q9C0E4 934-1023): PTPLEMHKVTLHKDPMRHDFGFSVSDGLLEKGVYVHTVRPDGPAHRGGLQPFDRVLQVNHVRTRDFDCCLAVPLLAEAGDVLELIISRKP

DFNB31_2, Q9P202 = biological target: T6, DFNB31_2, Q9P202
T6 sequence (Q9P202 274-371, limits assumed, looked up): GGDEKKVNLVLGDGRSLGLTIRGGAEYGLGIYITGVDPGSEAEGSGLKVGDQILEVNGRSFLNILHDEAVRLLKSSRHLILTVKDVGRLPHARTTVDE

SCRIB_2, Q14160 = biological target: SCRIB_2, Q14160
Sequence of SCRIB_2, Q14160 (Q14160 857-960): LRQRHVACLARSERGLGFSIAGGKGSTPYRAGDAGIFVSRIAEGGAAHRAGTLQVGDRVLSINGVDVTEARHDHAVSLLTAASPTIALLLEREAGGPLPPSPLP

HTRA3, P83110 = biological target: T7, HTRA3, P83110
T7 sequence (P83110 354-453, limits assumed, looked up): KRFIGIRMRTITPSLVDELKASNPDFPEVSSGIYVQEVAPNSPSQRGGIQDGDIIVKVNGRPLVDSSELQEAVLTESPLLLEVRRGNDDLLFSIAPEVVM

FRMPD1, Q5SYB0 = biological target: T8, FRMPD1, Q5SYB0
T8 sequence (Q5SYB0 52-145, limits assumed, looked up): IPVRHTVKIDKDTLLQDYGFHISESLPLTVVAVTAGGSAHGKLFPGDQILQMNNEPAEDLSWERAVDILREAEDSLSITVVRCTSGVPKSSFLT

GRIP2_6, Q9C0E4 = biological target: GRIP2_6, Q9C0E4
Sequence of GRIP2_6, Q9C0E4 (Q9C0E4 648-740): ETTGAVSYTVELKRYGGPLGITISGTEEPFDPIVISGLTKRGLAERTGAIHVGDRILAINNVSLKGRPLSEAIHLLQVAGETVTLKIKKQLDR

LNX1_1, Q8TBB1 = biological target: LNX1_1, Q8TBB1
Sequence of LNX1_1, Q8TBB1 (Q8TBB1 261-371): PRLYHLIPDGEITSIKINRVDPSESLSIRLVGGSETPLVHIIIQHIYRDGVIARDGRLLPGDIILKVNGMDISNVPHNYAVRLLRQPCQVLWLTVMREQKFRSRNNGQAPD

SNTB1, Q13884 = biological target: T9, SNTB1, Q13884
T9 sequence (Q13884 107-205, limits assumed, looked up): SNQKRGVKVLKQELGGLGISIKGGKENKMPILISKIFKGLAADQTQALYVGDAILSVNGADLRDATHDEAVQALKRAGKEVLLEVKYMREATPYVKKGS

MPP6, Q9NZW5 = biological target: T10, MPP6, Q9NZW5
T10 sequence (Q9NZW5 125-219, limits assumed, looked up): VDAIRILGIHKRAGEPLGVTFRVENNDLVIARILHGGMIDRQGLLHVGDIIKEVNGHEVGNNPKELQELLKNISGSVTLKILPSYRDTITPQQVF

GRID2IP_2, A4D2P6 = biological target: GRID2IP_2, A4D2P6
Sequence of GRID2IP_2, A4D2P6 (A4D2P6 272-370): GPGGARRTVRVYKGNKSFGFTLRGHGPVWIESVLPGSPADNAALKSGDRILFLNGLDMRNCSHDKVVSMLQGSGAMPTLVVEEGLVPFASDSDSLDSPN

DLG4_1, P78352 = biological target: DLG4_1, P78352
Sequence of DLG4_1, P78352 (P78352 62-152): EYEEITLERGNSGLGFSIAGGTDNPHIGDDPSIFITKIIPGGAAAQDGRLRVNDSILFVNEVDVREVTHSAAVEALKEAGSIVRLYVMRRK

TX1BP3, O14907 = biological target: T11, TX1BP3, O14907
T11 sequence (O14907 10-122, limits assumed, looked up): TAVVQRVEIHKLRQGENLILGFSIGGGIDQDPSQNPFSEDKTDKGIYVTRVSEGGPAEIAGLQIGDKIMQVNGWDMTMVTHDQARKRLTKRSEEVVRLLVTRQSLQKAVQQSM

GRIP2_5, Q9C0E4 = biological target: GRIP2_5, Q9C0E4
Sequence of GRIP2_5, Q9C0E4 (Q9C0E4 544-642): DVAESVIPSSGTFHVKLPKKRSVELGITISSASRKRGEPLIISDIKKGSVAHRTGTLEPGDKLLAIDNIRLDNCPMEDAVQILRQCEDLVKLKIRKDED

SCRIB_3, Q14160 = biological target: SCRIB_3, Q14160
Sequence of SCRIB_3, Q14160 (Q14160 999-1103): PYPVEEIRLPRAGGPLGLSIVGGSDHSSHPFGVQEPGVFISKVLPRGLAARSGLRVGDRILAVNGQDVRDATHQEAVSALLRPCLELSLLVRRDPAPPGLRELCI

[1] = plain residues with an end cap or a label only (N-terminal biotin on a linker: ttds)
[2] = plain residues with an end cap or a label only (N-terminal biotin on a linker: ahx)

pKd (SNTA1, Q13424; [1]): 3.97
pKd (DLG4_3, P78352; [1]): 4.31
pKd (LDB3, O75112; [1]): below the threshold
pKd (MAST2, Q6P0Q8; [1]): 4.42
pKd (ARHGEF12, Q9NZN5-2; [1]): 3.65
pKd (GRIP1_7, Q9Y3R0; [1]): below the threshold
pKd (GIPC2, Q8TF65; [1]): below the threshold
pKd (TJP3_3, O95049; [1]): below the threshold
pKd (SCRIB_1, Q14160; [1]): 3.83
pKd (GRID2IP_1, A4D2P6; [1]): below the threshold
pKd (PDZRN3_1, Q9UPQ7; [1]): 4.68
pKd (MAGI2_2, Q86UL8; [1]): 4.21
pKd (MPP2, Q14168; [1]): below the threshold
pKd (GRIP2_7, Q9C0E4; [1]): below the threshold
pKd (DFNB31_2, Q9P202; [1]): below the threshold
pKd (SCRIB_2, Q14160; [1]): 3.56
pKd (HTRA3, P83110; [1]): below the threshold
pKd (FRMPD1, Q5SYB0; [1]): below the threshold
pKd (GRIP2_6, Q9C0E4; [1]): below the threshold
pKd (LNX1_1, Q8TBB1; [1]): below the threshold
pKd (SNTB1, Q13884; [1]): 3.86
pKd (MPP6, Q9NZW5; [1]): below the threshold
pKd (GRID2IP_2, A4D2P6; [1]): below the threshold
pKd (DLG4_1, P78352; [1]): 4.22
pKd (TX1BP3, O14907; [1]): 4.64
pKd (GRIP2_5, Q9C0E4; [1]): below the threshold
pKd (SCRIB_3, Q14160; [1]): 4.76
B1: KCNJ12, Q14500 (peptide)
chain: QRPYRRESEI

pKd (SNTA1, Q13424; [1]): 4.7
pKd (DLG4_3, P78352; [1]): 3.8
pKd (LDB3, O75112; [1]): below the threshold
pKd (MAST2, Q6P0Q8; [1]): 5.35
pKd (ARHGEF12, Q9NZN5-2; [1]): below the threshold
pKd (GRIP1_7, Q9Y3R0; [1]): 4.11
pKd (GIPC2, Q8TF65; [1]): below the threshold
pKd (TJP3_3, O95049; [1]): below the threshold
pKd (SCRIB_1, Q14160; [1]): 4.45
pKd (GRID2IP_1, A4D2P6; [1]): below the threshold
pKd (PDZRN3_1, Q9UPQ7; [1]): 3.59
pKd (MAGI2_2, Q86UL8; [1]): 3.72
pKd (MPP2, Q14168; [1]): below the threshold
pKd (GRIP2_7, Q9C0E4; [1]): below the threshold
pKd (DFNB31_2, Q9P202; [1]): below the threshold
pKd (SCRIB_2, Q14160; [1]): 4.29
pKd (HTRA3, P83110; [1]): below the threshold
pKd (FRMPD1, Q5SYB0; [1]): below the threshold
pKd (GRIP2_6, Q9C0E4; [1]): below the threshold
pKd (LNX1_1, Q8TBB1; [1]): 3.81
pKd (SNTB1, Q13884; [1]): 4.79
pKd (MPP6, Q9NZW5; [1]): below the threshold
pKd (GRID2IP_2, A4D2P6; [1]): below the threshold
pKd (DLG4_1, P78352; [1]): 4.68
pKd (TX1BP3, O14907; [1]): 4.49
pKd (GRIP2_5, Q9C0E4; [1]): below the threshold
pKd (SCRIB_3, Q14160; [1]): 4.67
B2: ARHGEF26, Q96DR7 (peptide)
chain: GRLLGLETNV

pKd (SNTA1, Q13424; [1]): 5.05
pKd (DLG4_3, P78352; [1]): 3.46
pKd (LDB3, O75112; [1]): below the threshold
pKd (MAST2, Q6P0Q8; [1]): 4.65
pKd (ARHGEF12, Q9NZN5-2; [1]): 3.85
pKd (GRIP1_7, Q9Y3R0; [1]): 3.61
pKd (GIPC2, Q8TF65; [1]): 3.49
pKd (TJP3_3, O95049; [1]): below the threshold
pKd (SCRIB_1, Q14160; [1]): below the threshold
pKd (GRID2IP_1, A4D2P6; [1]): below the threshold
pKd (PDZRN3_1, Q9UPQ7; [1]): 4.3
pKd (MAGI2_2, Q86UL8; [1]): 4.1
pKd (MPP2, Q14168; [1]): below the threshold
pKd (GRIP2_7, Q9C0E4; [1]): below the threshold
pKd (DFNB31_2, Q9P202; [1]): below the threshold
pKd (SCRIB_2, Q14160; [1]): 3.8
pKd (HTRA3, P83110; [1]): below the threshold
pKd (FRMPD1, Q5SYB0; [1]): below the threshold
pKd (GRIP2_6, Q9C0E4; [1]): below the threshold
pKd (LNX1_1, Q8TBB1; [1]): 3.83
pKd (SNTB1, Q13884; [1]): 4.86
pKd (MPP6, Q9NZW5; [1]): below the threshold
pKd (GRID2IP_2, A4D2P6; [1]): 3.8
pKd (DLG4_1, P78352; [1]): 4.13
pKd (TX1BP3, O14907; [1]): below the threshold
pKd (GRIP2_5, Q9C0E4; [1]): below the threshold
pKd (SCRIB_3, Q14160; [1]): 3.99
B3: ARHGAP6, O43182 (peptide)
chain: NPDALPETLV

pKd (SNTA1, Q13424; [2]): below the threshold
pKd (DLG4_3, P78352; [2]): below the threshold
pKd (LDB3, O75112; [2]): below the threshold
pKd (MAST2, Q6P0Q8; [2]): 3.86
pKd (ARHGEF12, Q9NZN5-2; [2]): below the threshold
pKd (GRIP1_7, Q9Y3R0; [2]): below the threshold
pKd (GIPC2, Q8TF65; [2]): below the threshold
pKd (TJP3_3, O95049; [2]): 4.73
pKd (SCRIB_1, Q14160; [2]): 3.74
pKd (GRID2IP_1, A4D2P6; [2]): below the threshold
pKd (PDZRN3_1, Q9UPQ7; [2]): below the threshold
pKd (MAGI2_2, Q86UL8; [2]): below the threshold
pKd (MPP2, Q14168; [2]): below the threshold
pKd (GRIP2_7, Q9C0E4; [2]): 4.13
pKd (DFNB31_2, Q9P202; [2]): below the threshold
pKd (SCRIB_2, Q14160; [2]): 5.16
pKd (HTRA3, P83110; [2]): 5.51
pKd (FRMPD1, Q5SYB0; [2]): below the threshold
pKd (GRIP2_6, Q9C0E4; [2]): below the threshold
pKd (LNX1_1, Q8TBB1; [2]): below the threshold
pKd (SNTB1, Q13884; [2]): 3.5
pKd (MPP6, Q9NZW5; [2]): below the threshold
pKd (GRID2IP_2, A4D2P6; [2]): below the threshold
pKd (DLG4_1, P78352; [2]): 4.2
pKd (TX1BP3, O14907; [2]): 4.92
pKd (GRIP2_5, Q9C0E4; [2]): below the threshold
pKd (SCRIB_3, Q14160; [2]): 3.95
B4: ARVCF, O00192 (peptide)
chain: AKPQPVDSWV
